The target of series [1] is S. aureus DacA catalytic domain (DacACD), tag-less (S. aureus). Description: SEC-SAXS; tag-less DacACD, GlmM and the DacACD/GlmM complex on a Superdex 200 5/150 column coupled to the SAXS beam, 30 mM Tris pH 7.5, 150 mM NaCl; envelopes reconstructed, crystal structures fitted. For orientation: In gel filtration, larger molecules generally elute earlier.
For series [2], the target named is S. aureus phosphoglucosamine mutase GlmM, tag-less (S. aureus) (UniProt P0C0V7). The series is described as above.
Series [3] deals with S. aureus DacA catalytic domain (DacACD), tag-less (S. aureus). Description: SEC; tag-less proteins after Ni-NTA and thrombin cleavage on a Superdex 200 10/300 column, UV at 280 nm.
In series [4] the target is S. aureus phosphoglucosamine mutase GlmM, tag-less (S. aureus) (UniProt P0C0V7). Description: SEC-MALS + native MS; purified tag-less DacACD/GlmM complex; SEC-MALS: 100 ul at 18 mg/ml, Superdex 200 Increase 10/300, 30 mM Tris pH 7.5, 150 mM NaCl; native MS: 13.5 uM in 200 mM ammonium acetate.
Series [5] concerns the target S. aureus DacA catalytic domain (DacACD), tag-less (S. aureus). Kind of series: native MS; purified tag-less DacACD/GlmM complex, 13.5 uM in 200 mM ammonium acetate pH 7.5, nanoelectrospray, Waters Synapt QToF; species deconvoluted with Amphitrite.
Series [6] concerns the target S. aureus phosphoglucosamine mutase GlmM, tag-less (S. aureus) (UniProt P0C0V7). The description is as above. As to conditions: scale: DacACD per GlmM.
The target in series [7] is S. aureus phosphoglucosamine mutase GlmM, C-terminally His-tagged (GlmM-His) (S. aureus) (UniProt P0C0V7).
The target of series [8] is S. aureus DacACD-C variant (N166C, T172C), tag-less (S. aureus). Description: SEC; tag-less proteins after Ni-NTA and thrombin cleavage on a Superdex 200 10/300 column, UV at 280 nm.
Series [9] deals with S. aureus DacACD-K variant (N166K, T172K), tag-less (S. aureus). The series is described as above.
Series [10] concerns the molecule itself. Description: native MS; purified tag-less DacACD/GlmM complex, 13.5 uM in 200 mM ammonium acetate pH 7.5, nanoelectrospray, Waters Synapt QToF; species deconvoluted with Amphitrite.

In the case of “S. aureus DacA catalytic domain (DacACD), tag-less (domain or fragment)”, the stoichiometry N (commonly the number of molecules, sites or subunits per partner or assembly) in series [1] came to 2; in series [3], 2; in series [5], 2; in [6], 1. The molecule also registered a stoichiometry N (DacACD dimer per GlmM dimer) in [2] of 1. For the same molecule, in series [4], the stoichiometry N (DacACD dimer per GlmM dimer (2:2)) is 1. Further, the GlmM phosphoglucosamine mutase activity (coupled radioactive assay with GlmU), DacA in 5- to 400-fold excess over GlmM; no inhibition at 5- to 50-fold excess in series [7] was determined as 15%.

On to “S. aureus DacACD-C variant (N166C, T172C), tag-less (domain or fragment)”, for which the stoichiometry N in [8] came out at 2.

Molecule “S. aureus DacACD-K variant (N166K, T172K), tag-less (domain or fragment)” yielded a stoichiometry N in series [9] of 2.

B1: S. aureus phosphoglucosamine mutase GlmM, tag-less (enzyme)
chain: MGKYFGTDGVRGVANQELTPELAFKLGRYGGYVLAHNKGEKHPRVLVGRDTRVSGEMLESALIAGLISIGAEVMRLGIISTPGVAYLTRDMGAELGVMISASHNPVADNGIKFFGSDGFKLSDEQENEIEALLDQENPELPRPVGNDIVHYSDYFEGAQKYLSYLKSTVDVNFEGLKIALDGANGSTSSLAPFLFGDLEADTETIGCSPDGYNINEKCGSTHPEKLAEKVVETESDFGLAFDGDGDRIIAVDENGQIVDGDQIMFIIGQEMHKNQELNNDMIVSTVMSNLGFYKALEQEGIKSNKTKVGDRYVVEEMRRGNYNLGGEQSGHIVMMDYNTTGDGLLTGIQLASVIKMTGKSLSELAGQMKKYPQSLINVRVTDKYRVEENVDVKEVMTKVEVEMNGEGRILVRPSGTEPLVRVMVEAATDEDAERFAQQIADVVQDKMGLDK
notes: phosphoglucosamine mutase GlmM of S. aureus (LAC* genomic DNA); C-terminal 6-His tag removed at the thrombin site; In the tag-less DacACD/GlmM complex (SASBDB SASDE78) this chain stands with m1; also called tag-less GlmM; source: E. coli BL21 (DE3), purified (Ni-NTA, thrombin cleavage of the His-tag, size exclusion chromatography); not shown: His6, C-terminal, cleaved
Turning to B1, the “stoichiometry N” value in series [10] came to 2.

For the origin of these results see publication PMC6368335, “Inhibition of the Staphylococcus aureus c-di-AMP cyclase DacA by direct interaction with the phosphoglucosamine mutase GlmM” (PLoS Pathogens, 2019).
